Target: HA-tagged human GABARAP [human]
Test: co-immunoprecipitation (anti-HA IP), immunoblot quantification
Details: 2 h, RAW 264.7 LRRK2 KO cells, read off a plot

Substance: Halo-tagged human LRRK2 (WT) mutant W875A; I878A [human] / HA-tagged human GABARAP [human] chain 1 W875A, chain 1 I878A
- response (DMSO, parent: 1): 1.1 A.U.
- response (DMXAA 100 µg/mL, parent: 3.5): 1.7 A.U.

Substance: Halo-tagged human LRRK2 (WT) mutant W109A; L112A [human] / HA-tagged human GABARAP [human] chain 1 W109A, chain 1 L112A
- response (DMSO, parent: 1): 0.25 A.U.
- response (DMXAA 100 µg/mL, parent: 3.5): 0.9 A.U.

Substance: Halo-tagged human LRRK2 (WT) mutant W109A; L112A; W875A; I878A [human] / HA-tagged human GABARAP [human] chain 1 W109A, chain 1 L112A, chain 1 W875A, chain 1 I878A
- response (DMSO, parent: 1): 0.4 A.U.
- response (DMXAA 100 µg/mL, parent: 3.5): 0.85 A.U.
